This data set deals with CD34-expressing LT-HSPCs. As to the kind of experiment: Indel formation at HBB locus by TIDE analysis. Type of data set: cell-based, human. The following applies: RNP of Cas9 and R02 gRNA only; TIDE; FIG. 11. The protocol: Editing efficiency at the HBB locus was evaluated by measuring indel formation by TIDE analysis. […] This group had 1.7-fold reduction in INDEL frequency relative to cells treated with RNP+AAV,

B1: R02 gRNA: sgRNA targeting the HBB locus (SEQ ID NO: 17), used as RNP with Cas9 (nucleic acid)
guide: CNUNUNGCCCCACAGGGCAGUAAGUUUUAGAGCUAGAAAUAGCAAGUUAAAAUAAGGCUAGUCCGUUAUCAACUUGAAAAAGUGGCACCGAGUCGGUGCUNUNUNU
modifications: Synthetic gRNA-related, HBB sgRNA; modified_base (1)..(6) every c and u is a 2′ O-methyl phosphorothioate nucleotide; (2)..(2) n is a phosphorothioate nucleotide; (4)..(4) n is a phosphorothioate nucleotide; (6)..(6) n is a phosphorothioate nucleotide; modified_base (100)..(104) every u is a 2′ O-methyl phosphorothioate nucleotide; (101)..(101) n is a phosphorothioate nucleotide; (103)..(103) n is
B1: the indel formation is listed as 94%.

The values above are taken from patent publication US20210008161A1, “METHODS AND COMPOSITIONS FOR IMPROVED HOMOLOGY DIRECTED REPAIR” (CRISPR THERAPEUTICS AG, priority 2019, published 2021).
